Data reported in FireProtDB (doi:10.1021/acs.biochem.7b00571).

Conditions: Nicotiana tabacum; pH 7.2; 4 °C; Urea; Fluorescence; BES; reversible: yes; whole UniProt chain shown

B1: Salicylic acid-binding protein 2 wild type, Q6RYA0 (protein)
chain: MKEGKHFVLVHGACHGGWSWYKLKPLLEAAGHKVTALDLAASGTDLRKIEELRTLYDYTLPLMELMESLSADEKVILVGHSLGGMNLGLAMEKYPQKIYAAVFLAAFMPDSVHNSSFVLEQYNERTPAENWLDTQFLPYGSPEEPLTSMFFGPKFLAHKLYQLCSPEDLALASSLVRPSSLFMEDLSKAKYFTDERFGSVKRVYIVCTEDKGIPEEFQRWQIDNIGVTEAIEIKGADHMAMLCEPQKLCASLLEIAHKYN
- denaturant midpoint (higher = more stable): 2.2 M
